Assay results reported in US20120021999A1 (published 2012).
Ends that are not written are not given here. * marks the point of attachment. Biotin = O=C1N[C@H]2[C@H](CS[C@H]2CCCCC(=O)*)N1

B1: DPT-C9 (peptide)
peptide: Biotin-VKKKKIKREIKIYIETLDGILEQWARSEDL
notes: Biotinylated, held on streptavidin beads in the pull-down
B2: C9 (peptide)
peptide: Biotin-YIETLDGILEQWARSEDL
notes: Synthetic NH2-biotinylated peptide, held on streptavidin beads in the pull-down
B3: DPT-sh1 (peptide)
peptide: Biotin-VKKKKIKREIKI
notes: Penetrating shuttle peptide; origin printed as CK2alpha (human); Biotinylated, held on streptavidin beads in the pull-down; also called shuttle
B4: DPT-C9r (peptide)
peptide: Biotin-VKKKKIKREIKILDESRAWQELIGDLTEIY
notes: as for B1

Tests used:
[1] = target: T1, caspase-9 from IL-2-stimulated TS1αβ cellular extracts (mouse, UniProt Q8C3Q9 1-454, limits assumed); test: pull-down of biotinylated peptide on streptavidin beads from TS1αβ cell extracts, immunoblot
T1 construct: Endogenous protein in a cell lysate
T1 sequence (looked up): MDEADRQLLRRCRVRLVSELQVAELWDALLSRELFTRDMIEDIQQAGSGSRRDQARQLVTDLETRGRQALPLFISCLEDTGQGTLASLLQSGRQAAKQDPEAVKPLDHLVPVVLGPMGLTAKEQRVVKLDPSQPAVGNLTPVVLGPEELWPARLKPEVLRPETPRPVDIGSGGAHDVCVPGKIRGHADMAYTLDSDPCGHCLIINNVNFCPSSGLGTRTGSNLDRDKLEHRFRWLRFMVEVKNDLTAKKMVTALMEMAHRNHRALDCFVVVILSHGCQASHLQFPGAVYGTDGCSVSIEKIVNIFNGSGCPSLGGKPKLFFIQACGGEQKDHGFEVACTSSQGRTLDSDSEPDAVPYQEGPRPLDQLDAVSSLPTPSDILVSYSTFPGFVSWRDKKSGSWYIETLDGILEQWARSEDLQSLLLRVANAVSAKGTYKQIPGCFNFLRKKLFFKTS

[2] = target: T2, PP2Ac from IL-2-stimulated TS1αβ cellular extracts (mouse, UniProt P63330 1-309); test: pull-down of biotinylated peptide on streptavidin beads from TS1αβ cell extracts, anti-PP2Ac immunoblot
T2 construct: Endogenous protein in a cell lysate, detected by immunoblot with anti-PP2Ac antibody
T2 sequence (P63330 whole entry): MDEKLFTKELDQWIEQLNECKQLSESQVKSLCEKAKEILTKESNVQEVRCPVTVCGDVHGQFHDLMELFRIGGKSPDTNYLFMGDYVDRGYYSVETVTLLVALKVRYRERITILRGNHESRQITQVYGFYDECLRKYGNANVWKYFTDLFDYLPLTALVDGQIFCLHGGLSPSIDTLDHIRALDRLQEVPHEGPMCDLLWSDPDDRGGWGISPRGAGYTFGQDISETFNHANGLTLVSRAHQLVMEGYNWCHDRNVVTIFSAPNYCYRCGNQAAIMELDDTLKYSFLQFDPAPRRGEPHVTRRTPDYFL
Description: Control streptavidin-sepharose alone or conjugated to DPT-C9, DPT-C9r, DPT-sh1 or C9 peptides were incubated with IL-2-stimulated cellular extracts form TS1αβ cells (10⁷ cells/point). Identification of unbound proteins in lysates or bound proteins in pull-down experiments was performed by immunoblotting using antibodies against PP2Ac or PP1c.
Biotinylated peptides were preincubated 2 h at 0-100 μM (in final concentration with lysate) at room temperature with 30 μl of streptavidin-coated immunomagnetic beads (Calbiochem, San Diego Calif.). During this time, 10⁷ exponentially growing TS1αβ cells were first washed twice with PBS and then lysed 10 minutes on ice in 400 μl of lysis buffer (50 mM Tris pH7.4, 150 mM NaCl, 20% glycerol, 1% NP-40, 10 mM EDTA, 1 mM PhenylMethylSulfonyl Fluoride, 10 mM NaF, 1 mM orthovanadate, “complete, EDTA-free” protease inhibitor cocktail from Roche).
Lysates were clarified at 13000 g for 10 minutes at 4° C. and were incubated with biotinylated peptides associated with the streptavidin-coated immunomagnetic beads 2 h at 4° C. Biotinylated peptides were pulled down with streptavidin beads and washed two times in 700 μl of lysis buffer on ice. Bound proteins and unbound lysates were then analyzed by SDS-PAGE and Western Blotting using PP1c or PP2Ac antibodies.

| Binder | binding result [1] | binding result [2] |
| --- | --- | --- |
| B1 | no binding |  |
| B2 | no binding |  |
| B3 |  | no binding |
| B4 |  | no binding |
